From US20230122364A1

How the values were obtained:
[1] = target: SRBD subdomain of SARS-CoV-2 S protein (SARS-CoV-2) (UniProt P0DTC2); assay: ELISA on coated SRBD
[2] = target: SARS-CoV S2Pecto antigen (SARS-CoV) (UniProt P59594); assay: ELISA on coated SARS-CoV S2Pecto

## rCR3022 (recombinant form of the cross-reactive SARS-CoV SRBD mAb CR3022) (antibody)
[1]
  EC50: 1.1 ng/mL
[2]
  EC50: 5.2 ng/mL
